The record followed here is PMC2975869.

For assay [1], the target named is endogenous PTH1R of A10 cells (rat (endogenous in A10)) (UniProt P25961).
The target is the same in assay [2]. Kind of assay: radioligand binding.
In assay [3] the target is HA-tagged PTH1R (parathyroid hormone type 1 receptor), wild type (UniProt Q03431). Description: radioligand binding.

UniProt P25961, sequence (P25961 27-591): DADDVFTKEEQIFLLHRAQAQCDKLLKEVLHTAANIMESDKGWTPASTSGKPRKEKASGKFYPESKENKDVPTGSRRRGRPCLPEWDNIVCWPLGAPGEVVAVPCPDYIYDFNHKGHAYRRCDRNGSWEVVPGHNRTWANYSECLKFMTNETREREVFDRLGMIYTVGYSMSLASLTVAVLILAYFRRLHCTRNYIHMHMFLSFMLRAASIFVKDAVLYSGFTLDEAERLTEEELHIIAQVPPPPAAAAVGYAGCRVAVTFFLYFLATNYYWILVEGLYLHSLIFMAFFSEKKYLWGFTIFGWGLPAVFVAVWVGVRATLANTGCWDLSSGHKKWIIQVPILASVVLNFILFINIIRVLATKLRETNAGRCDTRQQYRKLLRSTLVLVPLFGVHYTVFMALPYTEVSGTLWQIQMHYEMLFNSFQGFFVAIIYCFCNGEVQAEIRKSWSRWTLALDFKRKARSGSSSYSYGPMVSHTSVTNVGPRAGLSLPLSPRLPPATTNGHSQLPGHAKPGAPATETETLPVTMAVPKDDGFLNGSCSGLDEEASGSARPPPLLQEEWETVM

Take PTHrP (1-36)-NH2 (peptide): the cAMP production in A10 cells in response to PTHrP(1-36), 30 min at 37 °C in assay [1] was found to be 3 fold.

In assay [2], [125I]-PTH(1-34)NH2 (peptide) showed a Total Binding (TB), cells transfected with EBP50 of 2470 and a Total Binding (TB), cells transfected with pcDNA3 of 1550. In assay [3], this substance returned a Total Binding (TB), cells co-transfected with EBP50 of 1980 and a Total Binding (TB), cells co-transfected with pcDNA3 of 1290.
